Results published in article PMC6643034, “A knottin scaffold directs the CXC-chemokine–binding specificity of tick evasins” (The Journal of Biological Chemistry, 2019).

B1: P1100_IXORI (natural protein)
chain: GSKGSSASQSSDNSVVAKFCDTNCTINEGGKWTECKGGCFCVHVGNETVGRCMKLDGDYDYPSPKPEE
notes: evasin P1100, mature peptide, 68 residues; N-terminal DGG expected after signal peptide cleavage; glycosylated
B2: P1086_IXORI (natural protein)
chain: GSKGQRASQVSETSITAEFCDTSCTQGTDKTWSGCSGDCFCVHVGNDTEGRCMRWDGDYPSAEEEE
notes: evasin P1086, mature peptide, 66 residues; N-terminal DGG expected after signal peptide cleavage; glycosylated
B3: EVA3_RHISA (natural protein)
chain: LVSTIESRTSGDGADNFDVVSCNKNCTSGQNECPEGCFCGLLGQNKKGHCYKIIGNLSGEPPVVRR
notes: N-terminal DGG expected after signal peptide cleavage; glycosylated; also called evasin 3; Evasin-3
B4: P942_IXORI (natural protein)
chain: NQLSGPQSSANSNEAVFCDTNCTQGTDEAWSGCRGDCFCVYVGNSTEGRCMMLSGDFDYSTPGAED
notes: evasin P942, mature peptide, 66 residues; N-terminal DGG expected after signal peptide cleavage; glycosylated
B5: P1078_IXORI (natural protein)
chain: GSKGSSAQQSSHDSIKAEFCETNCTMKTGGKWTQCHGGCFCVHVGNETVGRCIKLDGDYDYPSSKHEE
notes: evasin P1078, mature peptide, 68 residues; N-terminal DGG expected after signal peptide cleavage; glycosylated
B6: P1126_AMBCA (natural protein)
chain: KPQILQRTDKSTDSEWDPQTCPETCIPSKNITCSDGCVCVKLGEEEEGTCFNMTGVDWLGSPSDD
notes: evasin P1126, mature peptide, 65 residues; N-terminal DGG expected after signal peptide cleavage; glycosylated
B7: Evasin 3 (EVA3) (natural protein)
chain: DGGLVSTIESRTSGDGADNFDVVSCNKNCTSGQNECPEGCFCGLLGQNKKGHCYKIIGNLSGEPPVVRR
modifications: also: glycosylated
notes: residues expected at the N terminus after cleavage of the Igκ signal peptide (SignalP 3.0); Evasin-3 (EVA3_RHISA), Rhipicephalus sanguineus, mature peptide; class I founder; also called EVA3_RHISA; WT EVA3; source: HEK293F, transiently transfected, secreted; purified (nickel IMAC, SEC)
B8: P1142_AMBCA (natural protein)
chain: KPQILQRTDHSTDSDWDPQMCPETCNPSKNISCSSECLCVTLGGGDETGTCFNMSGVDWLGHAQASDGHNDG
notes: evasin P1142, mature peptide, 72 residues; N-terminal DGG expected after signal peptide cleavage; glycosylated
B9: CXCL11 (ligand, human, UniProt O14625 22-94, looked up)
chain: FPMFKRGRCLCIGPGVKAVKVADIEKASIMYPSNNCDKIEVIITLKENKGQRCLNPKSKQARLIIKKVERKNF
notes: human CXCL11
B10: CXCL13 (ligand, human, UniProt O43927 23-109, looked up)
chain: VLEVYYTSLRCRCVQESSVFIPRRFIDRIQILPRGNGCPRKEIIVWKKNKSIVCVDPQAEWIQRMMEVLRKRSSSTLPVPVFKRKIP
notes: human CXCL13

Tests used:
Details in all cases: both partners purified
[1] = target: B9; experiment: BLI; cross-binding screen on OctetRed; evasin held on a nickel-coated biosensor through its C-terminal His tag; each human chemokine at 300 nM
[2] = target: T1, CXCL2 (human, UniProt P19875 35-107); experiment: as above
T1 construct: human CXCL2

[3] = target: T2, CXCL10 (human, UniProt P02778 22-98); experiment: as above
T2 construct: human CXCL10

[4] = target: T3, CXCL1 (human, UniProt P09341 35-107); experiment: as above
T3 construct: human CXCL1

[5] = target: T4, CXCL3 (human, UniProt P19876 35-107); experiment: as above
T4 construct: human CXCL3

[6] = target: B10; experiment: as above
[7] = target: T1, CXCL2; experiment: as above; remark: listed apart in the source
[8] = target: T3, CXCL1; experiment: as above; remark: listed apart in the source
[9] = target: T4, CXCL3; experiment: as above; remark: listed apart in the source
[10] = target: B9; experiment: as above; remark: listed apart in the source
[11] = target: T1, CXCL2; experiment: as above; remark: listed apart in the source
[12] = target: T2, CXCL10; experiment: as above; remark: listed apart in the source
[13] = target: T3, CXCL1; experiment: as above; remark: listed apart in the source
[14] = target: T4, CXCL3; experiment: as above; remark: listed apart in the source
[15] = target: T5, CXCL2 (human, UniProt P19875 35-107); experiment: BLI; OctetRed; parental evasins and domain-swap hybrids held by the His tag; titration with chemokine from 600 to 0.4 nM; fit criterion R2 ≥ 0.89, five (in four cases four) concentrations
T5 construct: human CXCL2 of the panel of human chemokines used for biolayer interferometry

[16] = target: T6, CXCL3 (human, UniProt P19876 35-107); experiment: as above
T6 construct: human CXCL3 of the panel of human chemokines used for biolayer interferometry

[17] = target: T7, P1080_IXORI (Ixodes ricinus, UniProt A0A090XBL6 20-118); experiment: BLI; cross-binding screen on OctetRed; evasin held on a nickel-coated biosensor through its C-terminal His tag; each human chemokine at 300 nM
T7 construct: evasin P1080, mature peptide, 99 residues; N-terminal DGG expected after signal peptide cleavage; glycosylated
T7 sequence (A0A090XBL6 20-118): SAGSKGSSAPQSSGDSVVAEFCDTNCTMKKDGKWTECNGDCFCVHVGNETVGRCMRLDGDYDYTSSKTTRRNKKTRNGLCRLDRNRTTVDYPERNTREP

Measured: binding result

B1
binds: [1] | [2] | [3] | [4] | [5] | [6]

B2
binds: [2] | [3] | [4] | [5] | [6]

B3
binds: [7] | [8] | [9]

B4
binds: [1] | [2] | [3] | [4] | [5] | [6]

B5
binds: [1] | [2] | [4] | [5] | [6]

B6
binds: [10] | [11] | [12] | [13] | [14]

B7
binds: [15] | [16]

B8
binds: [10] | [11] | [12] | [13] | [14]

B9
binds: [17]

B10
binds: [17]
